Source: patent publication US20180207294A1, “NON-ALCOHOLIC FATTY LIVER REGULATING FACTOR 14-3-3 PROTEIN” (Korea University Research and Business Foundation, priority 2015, published 2018)

Tests used:
[1] = molecular target: T1, 14-3-3β and PPARγ2 (Homo sapiens, UniProt P37231); assay: Competitive GST-pull down assay, 14-3-3β / PPARγ2 binding under 14-3-3γ overexpression; conditions: as expression amount of 14-3-3γ was increased (HA-14-3-3γ DNA 2 and 4 μg); 10 μM pioglitazone; FIG. 5A
T1 construct: expressed in transfected cells; host or cells: HEK-293T
T1 sequence (P37231 1-505): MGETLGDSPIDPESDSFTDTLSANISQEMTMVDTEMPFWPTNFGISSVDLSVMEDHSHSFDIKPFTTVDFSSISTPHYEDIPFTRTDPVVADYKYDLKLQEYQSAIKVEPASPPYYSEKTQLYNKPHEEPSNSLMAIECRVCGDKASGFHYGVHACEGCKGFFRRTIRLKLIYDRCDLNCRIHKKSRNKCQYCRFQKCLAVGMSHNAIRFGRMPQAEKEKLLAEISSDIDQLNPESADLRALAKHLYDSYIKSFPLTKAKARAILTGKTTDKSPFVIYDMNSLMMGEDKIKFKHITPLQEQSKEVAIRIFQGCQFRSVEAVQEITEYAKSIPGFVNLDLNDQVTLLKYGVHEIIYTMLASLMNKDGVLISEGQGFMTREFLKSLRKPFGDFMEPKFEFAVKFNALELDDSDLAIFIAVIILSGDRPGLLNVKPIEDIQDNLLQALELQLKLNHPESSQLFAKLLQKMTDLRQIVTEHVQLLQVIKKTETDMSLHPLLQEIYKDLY
T1 sequence (P31946 1-246 partner): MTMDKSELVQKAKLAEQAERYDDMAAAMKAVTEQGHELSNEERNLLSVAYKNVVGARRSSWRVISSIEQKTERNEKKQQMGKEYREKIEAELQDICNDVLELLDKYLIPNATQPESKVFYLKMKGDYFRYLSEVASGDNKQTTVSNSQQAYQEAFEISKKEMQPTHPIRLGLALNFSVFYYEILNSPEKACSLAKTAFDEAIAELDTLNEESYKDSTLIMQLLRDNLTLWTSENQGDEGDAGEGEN
Description: (§1) From the previous experimental results, it was verified that 14-3-3β and 14-3-3γ were bound to the phosphorylated serine 273 residue of PPARγ2, and it was determined that the two proteins would competitively bind to the same residue. Thus, GST-pull down assay was carried out to verify competitive binding of 14-3-3β and 14-3-3γ with PPARγ2.
(§2) HEK-293T cells were seeded in a 100 mm plate at a density of 2×10^6 cells per each well, and then transfected with mGST-PPARγ2DNA (4 μg), GFP-14-3-3β DNA (4 μg) or GFP-14-3-3γ DNA (4 μg), and HA-14-3-3β DNA (2 and 4 μg) or HA-14-3-3γ DNA (2 and 4 μg) using an E-fection plus reagent (Lugen). A ratio of DNA to the E-fection plus reagent was 1:2 and this method was performed according to a manufacturer's manual. After transfection, the corresponding cells were treated with 10 μM of pioglitazone (Pio, Santa Cruz) for 24 hours, washed with ice-cold PBS, and lysed using 500 μl/well of a lysis buffer (150 mM NaCl, 1 mM EDTA, 1% Nonidet P-40, 5% glycerol, 25 mM tris-HCl, pH 7.5, protease inhibitor added), and the lysed cells were centrifuged at 10,000×g and 4° C. for 10 minutes to extract proteins. […]

[2] = molecular target: T2, 14-3-3γ and PPARγ2 (Homo sapiens, UniProt P37231); assay: Competitive GST-pull down assay, 14-3-3γ / PPARγ2 binding under 14-3-3β overexpression; conditions: as expression amount of 14-3-3β was increased (HA-14-3-3β DNA 2 and 4 μg); 10 μM pioglitazone; FIG. 5B
T2 construct: expressed in transfected cells; host or cells: HEK-293T
T2 sequence (P37231 1-505): T1 sequence (P37231 1-505)
T2 sequence (P31946 1-246 partner): T1 sequence (P31946 1-246 partner)
Description: as §1, §2

Row | Substance | binding between 14-3-3β and PPARγ2 [1] | binding between 14-3-3γ and PPARγ2 [2]
1 | 14-3-3γ: 14-3-3 isoform protein, overexpressed by DNA transfection; regulating factor that decreases transcriptional activity of PPARγ2 | reduced | 
2 | 14-3-3β: 14-3-3 isoform protein, overexpressed by DNA transfection; regulating factor that increases transcriptional activity of PPARγ2 |  | reduced
